Assays:
[1] = Thermostability (half-life, retained activity) of luciferases incubated in aqueous solution at different temperatures; format: physicochemical; details: for loss in activity: aqueous solution
Source text: As defined herein, a “thermostable” enzyme, e.g., a luciferase, or an enzyme which has “thermostability”, is an enzyme which under certain conditions, e.g., at certain temperature, in aqueous solution and/or for certain periods of time, has an increased retention of activity relative to a reference enzyme. For example, for a thermostable luciferase, a reference luciferase may be native wild-type luciferase or recombinant wild-type luciferase. Preferably, for beetle luciferases, the activity is luminescence under conditions of saturation with luciferin and ATP. One measure of thermostability of an enzyme is the half-life of the enzyme in an aqueous solution (the time over which 50% of the activity is lost) at a stated temperature.
Protein purification: Four mutants that are described herein (Luc[T249M], Luc49-7C6, Luc78-0B10, and Luc90-1B5) were purified using a previously published procedure (Hastings et al., 1996).
[…] Enzyme stability was determined from diluted proteins incubated at different temperatures, and aliquots were removed at different time points. A linear regression of the natural log of the luminescence and time was calculated. Half-life was calculated as the 1n(0.5)/slope of the regression.

[2] = Retention of luminescence activity at pH 4.5 and 48° C.; format: physicochemical; details: pH 4.5 and 48° C. (FIG. 54B)
Method: Three populations of random mutants were produced using clone Luc90-1B5 as a template. These three populations were screened on the robot as experiments 114, 115, and 117. […] These screening conditions were biased to select clones that have increased retention of luminescence activity over time at pH 4.5 at 48° C. and increased luminescence activity when assayed at pH 7.1 with 10 μM ATP. Seventeen clones from experiment 114, seven clones from experiment 115, and ten clones from experiment 116 were shuffled together using sPCR and selected mutants from this screen were run on the robot as experiment 117. Eighteen clones were selected from experiment 117.

B1: Luc90-1B5: mutant luciferase, SEQ ID NO:24 (protein)
chain: MADKNILYGPEPFYPLEDGTAGEQMFDALSRYADIPGCIALTNAHTKENVLYEEFLKLSCRLAESFKKYGLKQNDTIAVCSENGLQFFLPVIASLYLGIIVAPVNDKYIERELIHSLGIVKPRIVFCSKNTFQKVLNVKSKLKSIETIIILDLNEDLGGYQCLNNFISQNSDSNLDVKKFKPYSFNRDDQVALIMFSSGTTGLPKGVMLTHKNIVARFSLAKDPTFGNAINPTTAILTVIPFHHGFGMMTTLGYFTCGFRVVLMHTFEEKLFLQSLQDYKVESTLLVPTLMAFLAKSALVEKYDLSHLKEIASGGAPLSKEIGEMVKKRFKLNFVRQGYGLTETTSAVLITPKGDAKPGSTGKIVPFHAVKVVDPTTGKILGPNEPGELYFKGPMIMKGYYNNEEATKAIIDNDGWLRSGDIAYYDNDGHFYIVDRLKSLIKYKGYQVAPAEIEGILLQHPYIVDAGVTGIPDEAAGELPAAGVVVQTGKYLNEQIVQDYVASQVSTAKWLRGGVKFLDEIPKGSTGKIDRKVLRQMFEKHTNG
modifications: Mutant luciferase
[1]
  increased thermostability compared to LucPpe2 [T249M]: about 35 °C
[1]; 22° C. over several weeks, pH 6.5 (FIG. 16B)
  stability: stable
[1]; 65° C. over several hours, citrate buffer at pH 6.5 (FIG. 16A)
  activity loss: very little activity loss
[1]; 65° C., same buffer conditions as Table 2 (FIG. 16A)
  half-life: 27 h
[1]; after 120 hours (5 days) at 50° C., 25 mol/L citrate pH 6.5, 150 mmol/L NaCl, 1 mg/mL BSA, 0.1 mmol/L EDTA, 5% glycerol
  activity maintained: 75%
[1]; 2 hours at 50° C.
  loss in activity: 5%
[1]; 5 hours at 65° C.
  loss in activity: 5%
[1]; over 6 weeks at 22° C.
  loss in activity: 5%
[2]
  half-life: about 3 minutes
